PMC4691197 (PLoS ONE, 2015)
Numbering of substitutions follows the chain as printed. Numbers in names are those of the source.

Legend:
CFP WT βA3-crystallin = biological target: T1, CFP WT βA3-crystallin (UniProt P05813 1-215); test: FRET or BRET; FLIM-FRET in live HeLa cells co-transfected with CFP βA3-crystallin (donor) and YFP-tagged acceptors; donor life-time after 405 nm pulsed excitation; E = 1-TFRET/TCFP with TCFP 2.8 ns; 5-6 cells from 3 samples; conditions: partners not purified
T1 construct: βA3-crystallin, wild type; Surmise: N1 vectors place the fluorescent protein at the C-terminus of the insert; Expressed as ~51 kDa protein; degraded products were also seen on blots; also called CFP βA3-crystallin; βA3- CFP; source: HeLa, transfected, in live cells

[1] = biological target: T2, Recombinant His-tagged WT βA3-crystallin (UniProt P05813 1-215); test: SPR; BIACORE 2000; βA3-crystallin immobilised on a CM5 chip by EDC/NHS to ~2500 RU; analytes 5 μM-25 μM at 20 μL/min; room temperature; 50 mM sodium phosphate, pH 7.8, 150 mM NaCl; regeneration with 1 M NaCl; duplicates; 1:1 Langmuir fit; conditions: both partners purified
T2 construct: βA3-crystallin, wild type; Surmise: cloning into Nhe I/Xho I of pET 28b with a stop codon in the insert gives an N-terminal His tag; no cleavage is mentioned

B1: YFP αB NTD (N-terminal domain of αB-crystallin, 1–64 amino acids) (domain or fragment, UniProt P02511 1-64, looked up)
chain: MDIAIHHPWIRRPFFPFHSPSRLFDQFFGEHLLESDLFPTSTSLSPFYLRPPSFLRAPSWFDTG
notes: αB-crystallin N-terminal domain, residues 1-64; also called αB NTD-YFP; source: HeLa, transfected, in live cells
- FRET efficiency (CFP WT βA3-crystallin): 32%
- mean life-time of the donor CFP βA3-crystallin (CFP WT βA3-crystallin): 2.1 ± 0.3 ns

B2: YFP αB CD (core domain of αB-crystallin, 65–146 amino acids) (domain or fragment, UniProt P02511 65-146, looked up)
chain: LSEMRLEKDRFSVNLDVKHFSPEELKVKVLGDVIEVHGKHEERQDEHGFISREFHRKYRIPADVDPLTITSSLSSDGVLTVN
notes: αB-crystallin core domain, residues 65-146; also called αB CD-YFP; source: HeLa, transfected, in live cells
- FRET efficiency (CFP WT βA3-crystallin): 14%
- mean life-time of the donor CFP βA3-crystallin (CFP WT βA3-crystallin): 2.5 ± 0.2 ns

B3: YFP αB CTE (C-terminal extension of αB-crystallin, 147–175 amino acids) (domain or fragment, UniProt P02511 147-175, looked up)
chain: GPRKQVSGPERTIPITREEKPAVTAAPKK
notes: αB-crystallin C-terminal extension, residues 147-175; also called αB CTE-YFP; source: HeLa, transfected, in live cells
- FRET efficiency (CFP WT βA3-crystallin): 14%
- mean life-time of the donor CFP βA3-crystallin (CFP WT βA3-crystallin): 2.5 ± 0.2 ns

B4: YFP WT αB-crystallin (natural protein, UniProt P02511 1-175, looked up)
chain: MDIAIHHPWIRRPFFPFHSPSRLFDQFFGEHLLESDLFPTSTSLSPFYLRPPSFLRAPSWFDTGLSEMRLEKDRFSVNLDVKHFSPEELKVKVLGDVIEVHGKHEERQDEHGFISREFHRKYRIPADVDPLTITSSLSSDGVLTVNGPRKQVSGPERTIPITREEKPAVTAAPKK
notes: αB-crystallin, wild type, in pZS Yellow1-N1; Surmise: whole αB-crystallin (1-175, as the domain limits imply) with the fluorescent protein at the C-terminus (N1 vector); Expressed as ~46 kDa protein; also called WT YFP αB-crystallin; YFP αB; source: HeLa, transfected, in live cells
- FRET efficiency (CFP WT βA3-crystallin): 18%
- mean life-time of the donor CFP βA3-crystallin (CFP WT βA3-crystallin): 2.4 ± 0.2 ns

B5: Recombinant His-tagged WT αB-crystallin (natural protein, UniProt P02511 1-175, looked up)
chain: B4 chain
notes: αB-crystallin, wild type; Surmise: N-terminal His tag from pET 28b
- Kd [1]: 5.75 nM

B6: YFP αB N78D crystallin (natural protein, UniProt P02511 1-175, looked up)
chain: B4 chain with N78D
notes: αB-crystallin N78D, made by site-directed mutagenesis of the pZS Yellow1-N1 construct of αB-crystallin; Same limits as m12; source: HeLa, transfected, in live cells
- FRET efficiency (CFP WT βA3-crystallin): 36%
- mean life-time of the donor CFP βA3-crystallin (CFP WT βA3-crystallin): 1.6 ± 0.3 ns

B7: Recombinant His-tagged αB-crystallin N146D (natural protein, UniProt P02511 1-175, looked up)
chain: B4 chain with N146D
notes: αB-crystallin with the deamidation-mimicking change N146D, made by site-directed mutagenesis of the pET 28b construct of WT αB; Surmise: N-terminal His tag from pET 28b; also called αB N146D
- Kd [1]: 5.05 nM

B8: YFP αB N146D crystallin (natural protein, UniProt P02511 1-175, looked up)
chain: B4 chain with N146D
notes: αB-crystallin N146D, made by site-directed mutagenesis of the pZS Yellow1-N1 construct of αB-crystallin; Same limits as m12; source: HeLa, transfected, in live cells
- FRET efficiency (CFP WT βA3-crystallin): 22%
- mean life-time of the donor CFP βA3-crystallin (CFP WT βA3-crystallin): 2.2 ± 0.3 ns

B9: Recombinant His-tagged αB-crystallin N78D (natural protein, UniProt P02511 1-175, looked up)
chain: B4 chain with N78D
notes: αB-crystallin with the deamidation-mimicking change N78D, made by site-directed mutagenesis of the pET 28b construct of WT αB; Surmise: N-terminal His tag from pET 28b; also called αB N78D
- Kd [1]: 2.46 nM
